# Measurements reported in patent publication CN116284368A.
# T1: 临床全血样本裂解液中的MxA蛋白 (human) (UniProt P20591)
# T1 sequence (looked up): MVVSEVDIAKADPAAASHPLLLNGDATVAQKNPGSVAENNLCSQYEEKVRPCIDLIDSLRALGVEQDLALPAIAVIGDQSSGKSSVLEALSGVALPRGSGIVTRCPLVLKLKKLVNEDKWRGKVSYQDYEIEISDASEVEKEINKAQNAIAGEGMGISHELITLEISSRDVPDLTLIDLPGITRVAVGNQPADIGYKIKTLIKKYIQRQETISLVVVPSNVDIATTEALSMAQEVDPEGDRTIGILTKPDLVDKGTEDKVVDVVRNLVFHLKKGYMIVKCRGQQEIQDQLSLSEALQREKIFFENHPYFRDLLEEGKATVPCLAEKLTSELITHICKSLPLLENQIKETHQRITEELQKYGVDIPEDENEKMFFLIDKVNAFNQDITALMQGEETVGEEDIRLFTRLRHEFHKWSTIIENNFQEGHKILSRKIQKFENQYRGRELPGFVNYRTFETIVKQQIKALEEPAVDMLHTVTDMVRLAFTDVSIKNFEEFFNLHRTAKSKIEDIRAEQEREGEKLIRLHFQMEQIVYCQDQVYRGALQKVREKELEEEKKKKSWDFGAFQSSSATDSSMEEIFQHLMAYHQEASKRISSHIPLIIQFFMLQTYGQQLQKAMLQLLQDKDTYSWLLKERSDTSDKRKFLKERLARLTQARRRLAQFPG
# Biological target: T1, 临床全血样本裂解液中的MxA蛋白 (human)
# Assay: sandwich ELISA on clinical whole-blood lysates, antibody A coated (capture), antibody B-HRP detection
row,Binder,OD450 [OD450]
1,"抗体A (MxA-A抗体) (antibody, V domains shown) VH: EVQLVETGGGLVQPKGSLIVSCAASGFTFNRSAMNWVRQAPGKGLEWVARIRTKSNNYATYYADSVKDRFTISRDDSQSMLYLQMNNLKTEDTAMYYCVGGSDFAYWGQGTLVTVSA VL: DIQMTQTTSSLSASLGDRVTISCRASQDISNYLNWFQQKPDGTVKLLIYYTSRLYSGVPSRFSGSGSGTDYSLTITNLEQEDIATYFCQQGNTLPLTFGAGTKLELK",> 0.6
2,"抗体B (MxA-B抗体) (antibody, V domains shown) VH: QVQLQQSGAELARPGASVKLSCKASGYTFTSYWILWLKQRPGQGLEWIGAVYPGDGDTRYTQKFKGKATLTADKSSSTAYMQLSSLASEDSAVYYCARGYDNSFDYWGQGTTLTVSS VL: DVLMTQTPLSLPVSLGDQASISCRTSQTIVHSNGNTYLEWYLQKPGQSPKLLIYKVSNRFSGVPDRFSGSGSGTDFTLKISRVEAEDLGVYYCFQGSHVPPTFGAGTKLELK",> 0.6
